2 molecules from patent publication US20020099180A1 (published 2002) can be followed below.

For the assay, the target named is T1, tetanus toxoid (UniProt P04958 2-1315).
T1 construct: also called TTX
In words: ELISA, wells coated with FAP or irrelevant Ag as for the chimeric scFv.

T1 sequence (P04958 2-457 limits assumed, chain 1 of 2): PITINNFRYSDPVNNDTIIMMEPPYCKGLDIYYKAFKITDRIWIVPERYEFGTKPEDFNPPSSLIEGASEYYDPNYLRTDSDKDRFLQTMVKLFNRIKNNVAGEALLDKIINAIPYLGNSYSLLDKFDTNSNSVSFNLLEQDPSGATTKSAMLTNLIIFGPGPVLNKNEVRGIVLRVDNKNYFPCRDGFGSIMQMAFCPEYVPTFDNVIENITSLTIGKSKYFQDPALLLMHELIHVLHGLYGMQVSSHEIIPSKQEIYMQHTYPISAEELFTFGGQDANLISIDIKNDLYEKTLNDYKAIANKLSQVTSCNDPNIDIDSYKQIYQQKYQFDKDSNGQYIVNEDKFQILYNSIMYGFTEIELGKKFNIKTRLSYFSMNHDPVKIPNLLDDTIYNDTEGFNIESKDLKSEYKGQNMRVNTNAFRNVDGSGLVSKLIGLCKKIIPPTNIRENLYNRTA
T1 sequence (P04958 458-1315 limits assumed, chain 2 of 2): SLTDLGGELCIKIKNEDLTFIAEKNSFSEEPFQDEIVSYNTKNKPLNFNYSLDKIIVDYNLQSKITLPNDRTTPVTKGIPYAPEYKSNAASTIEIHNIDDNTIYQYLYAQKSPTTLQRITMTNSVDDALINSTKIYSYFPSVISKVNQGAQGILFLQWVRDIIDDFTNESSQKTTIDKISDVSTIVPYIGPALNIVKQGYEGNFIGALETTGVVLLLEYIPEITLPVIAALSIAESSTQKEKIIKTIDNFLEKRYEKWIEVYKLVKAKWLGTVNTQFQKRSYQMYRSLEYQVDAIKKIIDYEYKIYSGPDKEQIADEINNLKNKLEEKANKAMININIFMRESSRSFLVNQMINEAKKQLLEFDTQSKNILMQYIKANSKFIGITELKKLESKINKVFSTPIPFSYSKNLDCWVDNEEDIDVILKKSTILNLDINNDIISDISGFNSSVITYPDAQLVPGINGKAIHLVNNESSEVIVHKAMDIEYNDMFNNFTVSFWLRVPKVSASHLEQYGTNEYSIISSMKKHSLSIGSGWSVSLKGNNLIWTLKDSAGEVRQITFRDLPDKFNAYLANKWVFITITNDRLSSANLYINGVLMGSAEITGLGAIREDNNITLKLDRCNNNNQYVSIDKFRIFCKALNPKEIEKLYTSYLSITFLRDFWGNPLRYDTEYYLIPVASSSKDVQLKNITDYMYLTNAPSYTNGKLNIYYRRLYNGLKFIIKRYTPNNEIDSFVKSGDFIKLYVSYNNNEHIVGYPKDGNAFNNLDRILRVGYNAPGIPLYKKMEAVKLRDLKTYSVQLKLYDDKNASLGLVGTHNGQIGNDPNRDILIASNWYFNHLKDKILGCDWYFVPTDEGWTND

B1: scFv #18 (VH #18, IgG; VL III43; murine HCDR3 F19) (scFv)
scFv: QVQLVQSGAELKKPGSSMKVSCKASGDTFSTYSINWVRQAPGQGLEWMGVINPSGGSTSYAQKFQGRVTMTRDTSTSTVYMELSSLRSEDTAVYYCARRRIAYGYDEGHAMDYWGQGTLVTVSSASTKGPKLEEGEFSEARVDIQMTQSPSSLSASTGDRVTITCRASQDISSYLAWYQQAPGKAPHLLMSGATTLQTGVPSRFSGSGSGTDFTLTISSLQAEDVAVYYCQQYYRTPFTFGQGTKLEIKRTVAAPSVFAA
notes: Humanised monovalent scFv, detected through the c-myc tag with 9E10; also called clone #18; VH18 YOL III43; not shown: c-myc and HIS6 tags (pOPE101), or pIII in the screening ELISA
Turning to B1, the binding result is “no binding”.

B2: scFv #34 (VH #34, IgG; VL III43; murine HCDR3 F19) (scFv)
scFv: QVQLQQSGAEVKKPGSSVKVSCKASGGTFSTHTINWVRQAPGQGLEWMGGIAPMFGTANYAQKFQGRVTITADKSTSTAYMEMSSLRSDDTAVYYCARRRIAYGYDEGHAMDYWGQGTLVTVSSASTKGPKLEEGEFSEARVDIQMTQSPSSLSASTGDRVTITCRASQDISSYLAWYQQAPGKAPHLLMSGATTLQTGVPSRFSGSGSGTDFTLTISSLQAEDVAVYYCQQYYRTPFTFGQGTKLEIKRTVAAPSVFAA
notes: Humanised monovalent scFv, detected through the c-myc tag with 9E10; also called clone #34; VH34YOL III43; not shown: c-myc and HIS6 tags (pOPE101), or pIII in the screening ELISA
On to B2, for which the binding result is listed as “no binding”.
